Data: article PMC7226468, “Insight into the RssB-Mediated Recognition and Delivery of σ^s to the AAA+ Protease, ClpXP” (Biomolecules, 2020)
One block for each binder: values may come before it.

Columns and labels:
[1] = target: the molecule itself; assay: cross-linking; 0.005% (v/v) glutaraldehyde, 35 μg of each protein, 20 mM Hepes-KOH pH 7.5, 140 mM NaCl, 10 mM MgCl2, time course; SDS-PAGE and immunodecoration (anti-His, anti-RssB or anti-σS antisera)
[2] = target: T1, RssB (residues 1–337), untagged (E. coli, UniProt P0AEV1 1-337); assay: cell-based or functional assay
T1 sequence (looked up): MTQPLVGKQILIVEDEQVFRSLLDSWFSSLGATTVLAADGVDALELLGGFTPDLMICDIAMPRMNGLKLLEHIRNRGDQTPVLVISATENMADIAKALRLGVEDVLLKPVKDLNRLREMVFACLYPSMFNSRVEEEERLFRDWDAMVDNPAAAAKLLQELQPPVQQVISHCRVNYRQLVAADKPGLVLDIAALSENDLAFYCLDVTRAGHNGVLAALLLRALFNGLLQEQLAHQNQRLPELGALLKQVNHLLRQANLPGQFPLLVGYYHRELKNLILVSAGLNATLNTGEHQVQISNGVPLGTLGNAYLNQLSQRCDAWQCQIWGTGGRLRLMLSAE

half-life of σS in RssB-mediated turnover by 1.2 µM ClpXP with 2, 5 and 15 µM SspB added (from ~2.5 min without SspB) [2]: ~23 min
B1: His6-tagged zinc binding domain (ZBD) of E. coli ClpX (domain or fragment, UniProt P0A6H1 1-60, looked up)
chain: MTDKRKDGSGKLLYCSFCGKSQHEVRKLIAGPSVYICDECVDLCNDIIREEIKEVAPHRE
notes: Dimer by glutaraldehyde cross-linking; also called ClpXZBD; ecClpXZBD; source: purified ("Pure ecClpXZBD")
stoichiometry N [1]: 2

B2: RssBN (residues 1–128), untagged (domain or fragment, E. coli, UniProt P0AEV1 1-128, looked up)
chain: MTQPLVGKQILIVEDEQVFRSLLDSWFSSLGATTVLAADGVDALELLGGFTPDLMICDIAMPRMNGLKLLEHIRNRGDQTPVLVISATENMADIAKALRLGVEDVLLKPVKDLNRLREMVFACLYPSM
notes: RssB, E. coli, N-terminal receiver domain, residues 1-128; also called N-terminal domain of RssB; REC domain; source: Ub-fusion system, purified (IMAC, SEC)
stoichiometry N [1]: 2

B3: RssBC (residues 131–337), untagged (domain or fragment, E. coli, UniProt P0AEV1 131-337, looked up)
chain: SRVEEEERLFRDWDAMVDNPAAAAKLLQELQPPVQQVISHCRVNYRQLVAADKPGLVLDIAALSENDLAFYCLDVTRAGHNGVLAALLLRALFNGLLQEQLAHQNQRLPELGALLKQVNHLLRQANLPGQFPLLVGYYHRELKNLILVSAGLNATLNTGEHQVQISNGVPLGTLGNAYLNQLSQRCDAWQCQIWGTGGRLRLMLSAE
notes: RssB, E. coli, C-terminal effector domain, residues 131-337; also called C-terminal domain of RssB; effector domain; source: Ub-fusion system, purified (IMAC, SEC)
stoichiometry N [1]: 2
